The values below come from patent US20260234242A1 (HAINAN SIMCERE ZAIMING PHARMACEUTICAL, published 2026).

Experiment [1] has as its target T1, human CDH6 with EC3 removed, on HEK293T cells (HEK293T-hCDH6-EC3 deletion) (human, UniProt P55285 54-790).
T1 construct: Signal peptide not removed here
T1 sequence: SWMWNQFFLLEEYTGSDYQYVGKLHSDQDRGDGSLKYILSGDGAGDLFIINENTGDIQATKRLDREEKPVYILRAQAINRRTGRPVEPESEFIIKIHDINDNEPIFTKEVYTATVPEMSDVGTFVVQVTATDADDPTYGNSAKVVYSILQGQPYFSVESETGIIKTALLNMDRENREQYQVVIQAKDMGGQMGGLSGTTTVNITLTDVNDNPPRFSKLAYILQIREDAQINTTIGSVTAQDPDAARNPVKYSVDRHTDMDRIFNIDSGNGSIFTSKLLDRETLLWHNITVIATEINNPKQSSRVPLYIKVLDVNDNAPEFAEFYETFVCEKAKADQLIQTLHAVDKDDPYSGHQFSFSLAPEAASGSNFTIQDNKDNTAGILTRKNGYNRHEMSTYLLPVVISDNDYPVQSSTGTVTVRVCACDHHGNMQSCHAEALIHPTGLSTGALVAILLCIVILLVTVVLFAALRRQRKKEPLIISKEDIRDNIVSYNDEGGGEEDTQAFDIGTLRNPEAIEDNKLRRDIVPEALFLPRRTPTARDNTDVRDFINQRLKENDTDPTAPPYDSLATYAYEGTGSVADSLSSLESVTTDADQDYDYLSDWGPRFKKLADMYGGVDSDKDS
As to the kind of experiment: FACS, HEK293T-hCDH6-EC3 deletion cells. In general terms: A flow cytometer gives signals particle by particle.

Experiment [2] has as its target T2, human CDH6 on tumor cells (OVCAR3 cells, PA-1 cells) (human, UniProt P55285 54-790).
T2 sequence: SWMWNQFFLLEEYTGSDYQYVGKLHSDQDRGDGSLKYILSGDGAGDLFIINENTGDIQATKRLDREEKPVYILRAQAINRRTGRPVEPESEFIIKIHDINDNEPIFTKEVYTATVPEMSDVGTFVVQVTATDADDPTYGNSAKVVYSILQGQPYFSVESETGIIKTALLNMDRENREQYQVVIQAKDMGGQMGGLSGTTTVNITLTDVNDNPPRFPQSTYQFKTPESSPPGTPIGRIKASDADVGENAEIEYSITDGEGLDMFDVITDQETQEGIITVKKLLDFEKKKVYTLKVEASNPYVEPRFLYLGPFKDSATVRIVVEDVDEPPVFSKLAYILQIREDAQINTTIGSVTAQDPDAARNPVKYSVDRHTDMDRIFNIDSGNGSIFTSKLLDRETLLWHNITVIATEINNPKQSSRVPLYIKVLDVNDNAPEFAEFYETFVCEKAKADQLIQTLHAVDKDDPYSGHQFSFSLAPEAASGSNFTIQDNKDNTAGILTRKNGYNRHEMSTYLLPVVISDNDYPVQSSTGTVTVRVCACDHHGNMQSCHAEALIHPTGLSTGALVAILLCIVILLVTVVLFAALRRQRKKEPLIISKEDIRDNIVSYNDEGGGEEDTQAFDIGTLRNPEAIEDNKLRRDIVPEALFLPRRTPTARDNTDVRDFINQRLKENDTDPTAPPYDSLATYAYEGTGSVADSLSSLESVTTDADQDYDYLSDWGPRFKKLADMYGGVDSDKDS
As to the kind of experiment: FACS, PA-1 cells. The essentials:
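Chimeric or humanized hCDH6-14 antibody dilutions were incubated with PA-1 cells (moderate CDH6 expressors; OVCAR3 as high expressors) in PBS + 2% FBS for 1 h at 4 °C. A second 1 h step at 4 °C followed. Flow-cytometric MFI was curve-fitted to give EC50.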

Experiment [3] deals with T3, human CDH6 with EC2 removed, on HEK293T cells (HEK293T-hCDH6-EC2 deletion) (human, UniProt P55285 54-790).
T3 construct: Signal peptide not removed here
T3 sequence: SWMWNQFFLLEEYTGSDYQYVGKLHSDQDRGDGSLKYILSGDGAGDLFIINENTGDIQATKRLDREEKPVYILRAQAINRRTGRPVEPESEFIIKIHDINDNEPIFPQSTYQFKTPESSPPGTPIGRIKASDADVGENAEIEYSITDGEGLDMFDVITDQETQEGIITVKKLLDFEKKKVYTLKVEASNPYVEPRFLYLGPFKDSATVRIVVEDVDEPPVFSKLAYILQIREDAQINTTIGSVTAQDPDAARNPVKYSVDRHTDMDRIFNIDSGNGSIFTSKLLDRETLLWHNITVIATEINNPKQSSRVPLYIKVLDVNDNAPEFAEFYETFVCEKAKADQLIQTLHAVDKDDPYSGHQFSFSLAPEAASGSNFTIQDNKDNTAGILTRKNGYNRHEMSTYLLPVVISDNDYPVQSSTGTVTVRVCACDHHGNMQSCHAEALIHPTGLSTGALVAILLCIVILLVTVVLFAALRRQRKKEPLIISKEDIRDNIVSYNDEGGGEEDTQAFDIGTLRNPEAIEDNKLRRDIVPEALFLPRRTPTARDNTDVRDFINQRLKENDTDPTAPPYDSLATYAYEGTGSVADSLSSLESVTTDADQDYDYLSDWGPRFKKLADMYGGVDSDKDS
As to the kind of experiment: FACS, HEK293T-hCDH6-EC2 deletion cells.

B1: CHI-CDH6-12 (antibody, human IgG1, kappa, V domains shown)
VH: EVNLVESGGGLVQPGDSLTLSCSASGFTFTDYYMSWVRQFPGKALEWLALIRNKANSYTTEYSASVKGRFTISRDNSQSILYLQMNALRAEDSATYYCARDSYYSHDGFAYWGQGTLVTVSA
VL: DIVLTQSPASLAVSLGQRATISCRASKSVSTSSYTYMHWYQQKPGQPPKLLIKFASYLESGVPARFSGSGSGTDFTLNIHPVEEEDAATYYCQHSREFPFTFGTGTKLEIKR
notes: also called CH1-CDH6-12; chimeric antibody of murine CDH6-12
With B1, in experiment [1], the binding result is on record as “no binding”.

B2: CHI-CDH6-14 (antibody, human IgG1, kappa, V domains shown)
VH: QIQLQQSGPELVKPGTSVKISCKASGYTFTDNYINWVRQRPGQGLEWIGWIYPGTGNSYYNEKFKGKATLTVDTSSSTAYMQFSSLTSEDSAVYLCASSYGDSFDYWGQGTTLTVSS
VL: DIQMTQTTSSLSASLGNRVTISCRASQDIRNYLNWYQQKPDGTFKLLISYTSRLHSGVPSRFSGSGSGTDYSLTVSNLEPEDIATYYCQQYSQLPWTFGGGSRLEIKR
notes: also called CHI-hCDH6-14; CH1-CDH6-14
Broadly, the EC50 is the concentration giving half of the maximal effect. Higher therefore signals a less potent agent. For B2, in experiment [2], the EC50 is 0.27 nM and the “Max MFI” value is 4260 MFI.

B3: CHI-CDH6-4 (antibody, human IgG1, kappa, V domains shown)
VH: QVQLQQSGPELVKPGASVKISCKASGYAFSNFWMNWVKQRPGKGLEWIGWIYPGDGDTNYNGKFKDKATLTADKSSSTAYIQLSSLTSEDSAVYFCARLYDAWGFFDYWGQGTTLTVSS
VL: QIVLTQSPAIMSASPGQKVTITCSASSSVNYMHWYQQKLGSSPKLWIYDKSKLAPGVPARFSGSGSGTSYSLTISSMEAEDAASYFCHQWSSYPPMTFGGGTKLEIKR
notes: also called CH1-CDH6-4; chimeric antibody of murine CDH6-4
As for B3, the binding result in experiment [3] was “no binding”.
